This experiment addresses T1, GST-tagged hpol κ^19-526 (human DNA polymerase kappa catalytic core) (human, UniProt Q9UBT6 19-526).
T1 construct: human DNA polymerase kappa (hpol κ), residues 19-526, catalytic core; The pull-downs used GST-tagged hpol κ^19-526; The polymerase assays (functional rows) name hpol κ^19-526 without a GST tag; also called GST-hpol κ; source: recombinant, purified
T1 sequence (looked up): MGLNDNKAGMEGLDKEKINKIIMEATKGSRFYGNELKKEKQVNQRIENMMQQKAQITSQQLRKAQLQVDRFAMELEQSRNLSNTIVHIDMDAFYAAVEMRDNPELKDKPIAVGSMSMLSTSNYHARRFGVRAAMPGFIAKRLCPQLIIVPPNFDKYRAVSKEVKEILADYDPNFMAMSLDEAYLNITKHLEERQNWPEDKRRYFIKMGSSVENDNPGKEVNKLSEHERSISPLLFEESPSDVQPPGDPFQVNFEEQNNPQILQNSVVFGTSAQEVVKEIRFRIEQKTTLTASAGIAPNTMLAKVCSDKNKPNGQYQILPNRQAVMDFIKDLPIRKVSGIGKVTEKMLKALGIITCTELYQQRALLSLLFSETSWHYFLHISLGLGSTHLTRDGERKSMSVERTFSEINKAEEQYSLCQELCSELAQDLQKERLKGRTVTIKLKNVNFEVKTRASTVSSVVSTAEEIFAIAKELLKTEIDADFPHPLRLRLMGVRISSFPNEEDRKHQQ
The experiment can be described thus: pull-down; GST-hpol κ^19-526 on glutathione Sepharose beads (~1200 pmol), WRN construct 1 μM (~500 pmol) in 500 μl; 25 mM HEPES pH 7.5, 0.1 M NaCl, 10% glycerol, 5 mM β-ME; 16 h at 4°C; Coomassie-stained SDS-PAGE; specific binding = fraction bound to GST-hpol κ beads divided by fraction bound to GST-coated beads. The note with it: both partners purified.

B1: WRN^949-1092 RQC domain (domain or fragment, UniProt Q14191 949-1092, looked up)
chain: MDDSEDTSWDFGPQAFKLLSAVDILGEKFGIGLPILFLRGSNSQRLADQYRRHSLFGTGKDQTESWWKAFSRQLITEGFLVEVSRYNKFMKICALTKKGRNWLHKANTESQSLILQANEELCPKKLLLPSSKTVSSGTKEHCYN
notes: source: E. coli BL21 (DE3) Gold, purified (Ni Sepharose, Glutathione Sepharose, HRV 3C cleavage); not shown: 6xHis, N-terminal, cleaved; GST, N-terminal, cleaved
With B1, the “fold bound to GST-hpol κ beads over GST beads” value was ~3 fold.

B2: WRN^1-333 exo domain (domain or fragment, UniProt Q14191 1-333, looked up)
chain: MSEKKLETTAQQRKCPEWMNVQNKRCAVEERKACVRKSVFEDDLPFLEFTGSIVYSYDASDCSFLSEDISMSLSDGDVVGFDMEWPPLYNRGKLGKVALIQLCVSESKCYLFHVSSMSVFPQGLKMLLENKAVKKAGVGIEGDQWKLLRDFDIKLKNFVELTDVANKKLKCTETWSLNSLVKHLLGKQLLKDKSIRCSNWSKFPLTEDQKLYAATDAYAGFIIYRNLEILDDTVQRFAINKEEEILLSDMNKQLTSISEEVMDLAKHLPHAFSKLENPRRVSILLKDISENLYSLRRMIIGSTNIETELRPSNNLNLLSFEDSTTGGVQQKQI
notes: also called WRN exo
Turning to B2, the binding result is on record as “binds”.

B3: WRN^500-1092 ATPase/RQC construct (domain or fragment)
chain: not shown
notes: as for B1
With B3, the “fold bound to GST-hpol κ beads over GST beads” value is ~2 fold.

For the origin of these results see PMC4231769, “The Werner syndrome protein limits the error-prone 8-oxo-dG lesion bypass activity of human DNA polymerase kappa” (Nucleic Acids Research, 2014).
